Measured values: the supplement of paper PMC7125110
± gives the standard error. For part of these data: Variants at the floor of the assay were thinned out.

B1: glmS ribozyme (parent)
chain: AUAAAAGCGCCAGAACUACAGAAAUGUAGUUGACGAGGAGGAGGUUUAUCGAAUUUUCGGCGGAUGCCUCCAAA

How the values were obtained:
Conditions in all cases: with glucosamine-6-phosphate
glucosamine-6-phosphate [1] = variants of: B1; assay: kcat; higher = faster cleavage; RNA array
Method in brief: (§1)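 Glucosamine-6-phosphate, from 40 μM to 10 mM in HEPES/KCl/Mg(OAc)2 buffer, was flowed over sequenced MiSeq chips carrying barcoded ribozyme variants transcribed in situ by E. coli RNA polymerase. A hybridised Cy3 probe tracked the variants at 37 °C as tiles were imaged over ~14 h. kobs, kcat and KM were obtained by fitting normalised per-tile medians to exponential decays and then applying weighted Michaelis–Menten fits across concentrations.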

glucosamine-6-phosphate [2] = variants of: B1; assay: KM; higher = weaker cofactor use; RNA array
Method in brief: as §1

glucosamine-6-phosphate [3] = variants of: B1; assay: self-cleavage kobs at 40 uM GlcN6P; higher = faster cleavage; RNA array
Method in brief: as §1

glucosamine-6-phosphate [4] = variants of: B1; assay: self-cleavage kobs at 160 uM GlcN6P; higher = faster cleavage; RNA array
Method in brief: as §1

glucosamine-6-phosphate [5] = variants of: B1; assay: self-cleavage kobs at 640 uM GlcN6P; higher = faster cleavage; RNA array
Method in brief: as §1

glucosamine-6-phosphate [6] = variants of: B1; assay: self-cleavage kobs at 2500 uM GlcN6P; higher = faster cleavage; RNA array
Method in brief: as §1

glucosamine-6-phosphate [7] = variants of: B1; assay: self-cleavage kobs at 10000 uM GlcN6P; higher = faster cleavage; RNA array
Method in brief: as §1

Variant	kcat (glucosamine-6-phosphate [1]) [s⁻¹]	KM (glucosamine-6-phosphate [2]) [µM]	self-cleavage kobs at 40 uM GlcN6P (glucosamine-6-phosphate [3]) [s⁻¹]	self-cleavage kobs at 160 uM GlcN6P (glucosamine-6-phosphate [4]) [s⁻¹]	self-cleavage kobs at 640 uM GlcN6P (glucosamine-6-phosphate [5]) [s⁻¹]	self-cleavage kobs at 2500 uM GlcN6P (glucosamine-6-phosphate [6]) [s⁻¹]	self-cleavage kobs at 10000 uM GlcN6P (glucosamine-6-phosphate [7]) [s⁻¹]
AUAAAAGCGCCAGAACUACAGAAAUGUAGUUGACGAGGAGGAUGUUUAUCGAAUUUUCGGCGGAUGGCUCCAAA	0.00171 ± 0.00015	1020 ± 150	7.18e-05 ± 1e-05	0.00022 ± 6e-05	0.000597 ± 8.6e-05	0.00117 ± 0.0002	0.00166 ± 0.00022
AUAAAAGCGCCAGAACUACAGAAAUGUAGUUGACGAGGAGGAUGUUUAUCGAAUUUUCGGCGGAAGCCUCCAAA	4.13e-05 ± 2e-06	5670 ± 730	–	< 1e-05	< 1e-05	–	2.64e-05 ± 1.1e-05
AUAAAAGCGCCAGAACUACAGAAAUGUAGUUGACGAGGAGGAUGUUUAUCGAAGUUUCGGCGGAUGCCUCCAAA	8.63e-05 ± 2.8e-05	–	–	–	–	6.89e-05 ± 1.8e-05	6.53e-05 ± 2.3e-05
AUAAAAGCGCCAGAACUACAGAAAUGUAGUUGACGAGGAGGAGAUUUAUCGAAUUUUCGGCGGAUGGCUCCAAA	0.000462 ± 7e-05	1700 ± 580	–	2.41e-05 ± 1e-05	0.000128 ± 1.5e-05	0.000355 ± 3.8e-05	0.000371 ± 3e-05
AUAAAAGCGCCAGAACUACAGAAAUGUAGUUGACGAGGAGGAGCUUUAUCGGAUUUUCGGCGGAUGCCUCCAAA	< 1e-05	279 ± 110	< 1e-05	< 1e-05	< 1e-05	–	–
AUAAAAGCGCCAGAACUACAGAAAUGUAGUUGACGAGGAGGAGCUUUAUCGAAUUUUCGGCGGAUGUCUCCAAA	0.00192 ± 0.00015	1700 ± 200	5.1e-05 ± 1.3e-05	0.000153 ± 3.2e-05	0.000532 ± 0.00011	0.00109 ± 0.00024	0.00168 ± 0.0003
AUAAAAGCGCCAGAACUACAGAAAUGUAGUUGACGAGGAGGAUGUUUAUCGAAUUUUCGGCGGAUGCCUUCAAA	2.12e-05 ± 3.3e-06	–	< 1e-05	< 1e-05	–	2.17e-05 ± 8.6e-06	–
AUAAAAGCGCCAGAACUACAGAAAUGUAGUUGACGAGGAGGAGUUUUAUCGAGUUUUCGGCGGAUGCCUCCAAA	0.000308 ± 2.1e-05	997 ± 240	–	3.95e-05 ± 1.8e-05	–	0.000223 ± 6e-05	0.00028 ± 3.8e-05
AUAAAAGCGCCAGAACUACAGAAAUGUAGUUGACGAGGAGGAGCUUUAUCGAAUUUUCGGCGGAUGCCUUCAAA	< 1e-05	–	< 1e-05	–	–	–	–
AUAAAAGCGCCAGAACUACAGAAAUGUAGUUGACGAGGAGGAGAUUUAUCGAAUUUUCGGCGGAAGCCUCCAAA	0.000154 ± 9.6e-06	828 ± 240	–	–	6.51e-05 ± 2.8e-05	0.000133 ± 3.6e-05	0.000139 ± 2e-05
AUAAAAGCGCCAGAACUACAGAAAUGUAGUUGACGAGGAGGAGAUUUAUCGAAUUGUCGGCGGAUGCCUCCAAA	0.000224 ± 3.2e-05	–	–	–	5.52e-05 ± 2.2e-05	0.000188 ± 3.9e-05	0.00019 ± 2.1e-05
AUAAAAGCGCCAGAACUACAGAAAUGUAGUUGACGAGGAGGAUGUUUACCGAAUUUUCGGCGGAUGCCUCCAAA	< 1e-05	–	< 1e-05	< 1e-05	< 1e-05	< 1e-05	–
AUAAAAGCGCCAGAACUACAGAAAUGUAGUUGACGAGGAGGAGAUUUAUCGAAUUUUCGGCGGAUGCCUCCAAA	0.00053 ± 6.3e-05	1820 ± 420	–	3.7e-05 ± 2.4e-06	0.000135 ± 3e-06	0.000389 ± 1e-05	0.000426 ± 8.1e-06
AUAAAAGCGCCAGAACUACAGAAAUGUAGUUGACGAGGAGGAGUUUUAUCGAAUUUUCGGCGGAUGCCUCCAAA	0.000429 ± 5.3e-05	2040 ± 470	–	2.34e-05 ± 1.7e-06	0.000101 ± 2.1e-06	0.000282 ± 6.2e-06	0.000335 ± 6.6e-06
AUAAAAGCGCCAGAACUACAGAAAUGUAGUUGACGAGGAGGAGCUUUAUCGAAUUUUCGGCGGAUGCCUCCAAA	0.0002 ± 2.4e-05	1980 ± 570	–	–	4.33e-05 ± 1.8e-06	0.000127 ± 2.9e-06	0.000159 ± 3.5e-06
